In publication PMC10250397 one finds fold change of FRET efficiency after H/R against normoxia and FRET efficiency data, which are given here for 2 substances.

The assay deals with SERCA2-mTurquoise2 (UniProt P16615). The experiment in a line: FRET or BRET; three channel sensitized emission FRET on living HEK293-T cells, SERCA2-mTurquoise2 donor and GSK3β-sYFP2 acceptor, confocal microscope; normoxia or 60 min hypoxia followed by 30 min reoxygenation. For orientation: BRET reads energy transfer from a luciferase to a nearby fluorophore.
Chain of UniProt P16615 (P16615 whole entry): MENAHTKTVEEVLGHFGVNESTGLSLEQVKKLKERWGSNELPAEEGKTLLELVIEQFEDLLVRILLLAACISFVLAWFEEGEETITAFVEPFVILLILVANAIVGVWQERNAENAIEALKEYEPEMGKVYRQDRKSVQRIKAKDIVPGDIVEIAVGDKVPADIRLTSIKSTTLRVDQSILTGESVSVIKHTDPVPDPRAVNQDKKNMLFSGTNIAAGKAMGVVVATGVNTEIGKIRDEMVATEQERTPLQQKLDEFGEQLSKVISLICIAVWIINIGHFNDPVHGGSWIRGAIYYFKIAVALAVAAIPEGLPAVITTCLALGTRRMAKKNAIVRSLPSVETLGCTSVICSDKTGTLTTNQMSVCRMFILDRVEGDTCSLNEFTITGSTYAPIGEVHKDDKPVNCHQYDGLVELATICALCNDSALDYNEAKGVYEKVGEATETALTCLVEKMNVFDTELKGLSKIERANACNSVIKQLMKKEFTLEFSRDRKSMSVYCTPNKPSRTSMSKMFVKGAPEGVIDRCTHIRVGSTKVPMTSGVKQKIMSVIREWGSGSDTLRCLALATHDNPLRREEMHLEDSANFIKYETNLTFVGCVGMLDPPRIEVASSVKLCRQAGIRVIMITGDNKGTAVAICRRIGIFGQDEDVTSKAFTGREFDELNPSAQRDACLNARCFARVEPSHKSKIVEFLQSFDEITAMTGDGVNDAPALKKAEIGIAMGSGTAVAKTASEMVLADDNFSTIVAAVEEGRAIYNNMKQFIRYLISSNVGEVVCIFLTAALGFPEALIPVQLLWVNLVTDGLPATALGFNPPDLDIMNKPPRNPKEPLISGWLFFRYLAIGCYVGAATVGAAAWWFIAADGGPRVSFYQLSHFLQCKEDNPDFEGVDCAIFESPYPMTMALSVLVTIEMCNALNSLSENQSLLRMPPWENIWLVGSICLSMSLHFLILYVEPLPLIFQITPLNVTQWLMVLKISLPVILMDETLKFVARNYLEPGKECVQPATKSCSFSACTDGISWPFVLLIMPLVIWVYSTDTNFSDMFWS

Chain of GSK3β-sYFP2 (P49841 whole entry): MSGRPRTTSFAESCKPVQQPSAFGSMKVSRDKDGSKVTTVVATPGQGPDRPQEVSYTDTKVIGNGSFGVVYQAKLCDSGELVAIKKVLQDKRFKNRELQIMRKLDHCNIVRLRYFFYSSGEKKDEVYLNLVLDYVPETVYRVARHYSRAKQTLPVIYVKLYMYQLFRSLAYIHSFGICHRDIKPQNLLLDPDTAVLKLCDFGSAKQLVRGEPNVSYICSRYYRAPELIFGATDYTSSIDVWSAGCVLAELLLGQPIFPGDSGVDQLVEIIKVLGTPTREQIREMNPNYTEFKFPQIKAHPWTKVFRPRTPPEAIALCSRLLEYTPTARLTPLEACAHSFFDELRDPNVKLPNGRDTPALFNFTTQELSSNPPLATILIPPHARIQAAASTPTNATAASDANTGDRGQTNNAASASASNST

Take “GSK3β-sYFP2 (from UniProt P49841 1-420) (enzyme)”: the fold change of FRET efficiency after H/R against normoxia worked out at 3 fold.
With “GSK3β-sYFP2 (from UniProt P49841 1-420) (living HEK293-T cells)”, the FRET efficiency was determined as 3.11%.
